Test results published in patent publication US10973880B2, “Compositions and methods for treating pulmonary hypertension” (Acceleron Pharma Inc., priority 2016, dated 2021).

Legend:
Test in all cases: Biacore-based binding assay, receptor captured with anti-Fc antibody
activin B = molecular target: T1, activin B (Homo sapiens, UniProt P09529)
T1 sequence (P09529 293-407): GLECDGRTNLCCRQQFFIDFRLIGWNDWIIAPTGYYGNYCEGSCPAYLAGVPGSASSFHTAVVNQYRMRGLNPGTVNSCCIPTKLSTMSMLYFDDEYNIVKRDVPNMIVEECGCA

GDF3 = molecular target: T2, GDF3 (Homo sapiens, UniProt Q9NR23)
T2 sequence (Q9NR23 251-364): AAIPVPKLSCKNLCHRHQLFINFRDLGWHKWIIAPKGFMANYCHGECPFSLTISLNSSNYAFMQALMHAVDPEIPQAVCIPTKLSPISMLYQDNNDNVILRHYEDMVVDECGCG

GDF8 = molecular target: T3, GDF8 (Homo sapiens, UniProt O14793)
T3 sequence (O14793 267-375): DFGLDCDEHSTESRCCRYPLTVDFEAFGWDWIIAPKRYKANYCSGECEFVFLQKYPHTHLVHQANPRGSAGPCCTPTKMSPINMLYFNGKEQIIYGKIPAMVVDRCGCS

BMP10 = molecular target: T4, BMP10 (Homo sapiens, UniProt O95393)
T4 sequence (O95393 317-424): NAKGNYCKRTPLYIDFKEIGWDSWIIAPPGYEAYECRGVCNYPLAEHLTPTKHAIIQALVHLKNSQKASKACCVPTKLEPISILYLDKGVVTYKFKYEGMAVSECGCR

activin A = molecular target: T5, activin A (Homo sapiens, UniProt P08476)
T5 sequence (P08476 311-426): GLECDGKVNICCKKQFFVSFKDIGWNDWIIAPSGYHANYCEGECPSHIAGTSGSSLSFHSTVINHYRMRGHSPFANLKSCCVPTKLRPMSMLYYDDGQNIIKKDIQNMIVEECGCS

B1: ALK4-Fc:ActRIIB-Fc heterodimer: heteromeric complex of extracellular domains of human ActRIIB and human ALK4, each separately fused to an Fc domain with a linker (protein)
chain 1: SGPRGVQALLCACTSCLQANYTCETDGACMVSIFNLDGMEHHVRTCIPKVELVPAGKPFYCLSSEDLRNTHCCYTDYCNRIDLRVPSGHLKEPEHPSMWGPVE
chain 2: GRGEAETRECIYYNANWELERTNQSGLERCEGEQDKRLHCYASWRNSSGTIELVKKGCWLDDFNCYDRQECVATEENPQVYFCCCEGNFCNERFTHLPEAGGPEVTYEPPPTAPT
modifications: left off: a dimerising Fc or GST; small tags and cut ends
notes: heteromeric complex of extracellular domains of human ActRIIB and human ALK4, each separately fused to an Fc domain with a linker
In the case of B1, the Kd (activin B) is reported as 0.006 nM, the “ka, Activin B” value (activin B) is reported as 7.1e+06 M⁻¹ s⁻¹ and the “kd, Activin B” value (activin B) is reported as 4e-05 s⁻¹. For the same molecule, the Kd (GDF3) was 4.9 nM, the “ka, GDF3” value (GDF3) was 3.4e+06 M⁻¹ s⁻¹ and the “kd, GDF3” value (GDF3) was 0.017 s⁻¹. The “ka, GDF8” value (GDF8) was 390000 M⁻¹ s⁻¹, the “kd, GDF8” value (GDF8) was 0.00021 s⁻¹ and the Kd (GDF8; † = very low signal) was 0.55 nM. The Kd (BMP10) was 0.074 nM, the “ka, BMP10” value (BMP10) was 5.6e+07 M⁻¹ s⁻¹ and the “kd, BMP10” value (BMP10) was 0.0041 s⁻¹. For the same molecule, the “ka, Activin A” value (activin A) was 1.3e+07 M⁻¹ s⁻¹ and the “kd, Activin A” value (activin A) was 0.00015 s⁻¹.
